Target: human PD-1 on Jurkat cells (human, UniProt Q15116 25-288)
Assay: cell-based or functional assay

human PD-1 on Jurkat cells, sequence (Q15116 25-288): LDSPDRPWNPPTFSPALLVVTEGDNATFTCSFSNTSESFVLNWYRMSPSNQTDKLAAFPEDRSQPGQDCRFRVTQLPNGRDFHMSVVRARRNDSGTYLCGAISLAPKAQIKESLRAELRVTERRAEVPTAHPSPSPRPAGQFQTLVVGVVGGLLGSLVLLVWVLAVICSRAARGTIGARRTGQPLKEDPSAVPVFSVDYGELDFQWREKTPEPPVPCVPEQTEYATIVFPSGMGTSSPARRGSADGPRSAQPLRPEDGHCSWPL

B1: peptide QP20 (peptide)
peptide: QTRTVPMPKIHHPPWQNVVP
Question: For B1, which “EC50 (read off the curve), Fold Inhibition of RLU” value is on record?
Answer: ~8 µM

— US20180071385A1 (LEIDOS, published 2018)
